Holding throughout (conditions): both partners purified
In assay [1] the target is T1, Recombinant human TREM2 (human, UniProt Q9NZC2 19-174).
T1 construct: Triggering receptor expressed on myeloid cells 2 (TREM2), human, recombinant; As I recall, this catalogue item is the extracellular domain with a C-terminal His tag; also called triggering receptor expressed on myeloid cells 2; hTREM2; source: bought: Sino Biological Inc. (#11084-H08H)
T1 sequence (looked up): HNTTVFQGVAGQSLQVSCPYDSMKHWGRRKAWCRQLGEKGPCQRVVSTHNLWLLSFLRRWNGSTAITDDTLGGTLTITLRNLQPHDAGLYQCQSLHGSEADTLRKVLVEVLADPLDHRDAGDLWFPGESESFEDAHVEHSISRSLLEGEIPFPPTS
Briefly: ELISA; competition: human TREM2 (40 nM) coated; 6 nM ApoE ε2 with 0-6 μM ApoE-mim149 or scrambled peptide, 1 h at RT; bound full-length ApoE detected with polyclonal anti-ApoE; one site-fit Ki.

Assay [2] deals with T1, Recombinant human TREM2. Briefly: ELISA; competition: human TREM2 (40 nM) coated; 6 nM ApoE ε3 with 0-6 μM ApoE-mim149 or scrambled peptide, 1 h at RT; bound full-length ApoE detected with polyclonal anti-ApoE; one site-fit Ki.
For assay [3], the target named is T1, Recombinant human TREM2. The assay can be described thus: ELISA; competition: human TREM2 (40 nM) coated; 6 nM ApoE ε4 with 0-6 μM ApoE-mim149 or scrambled peptide, 1 h at RT; bound full-length ApoE detected with polyclonal anti-ApoE; one site-fit Ki. On the technique in general: In an ELISA, binding on a coated surface is turned into a signal by an enzyme label.

As a reminder, the Ki is the equilibrium dissociation constant of an inhibitor or competing ligand from its target.

B1: ApoE-mimetic peptide corresponding to amino acids 130–149 (peptide)
peptide: Ac-TEELRVRLASHLRKLRKRLL-NH2
notes: also called ApoE-mim149; source: synthetic peptide, bought: GenScript
B1: the Ki with Recombinant human TREM2 [1] came to 827 nM; with Recombinant human TREM2 [2], 475 nM; in the assay with Recombinant human TREM2 [3] it was 1540 nM.

Source of the values: paper PMC5360024, “The Alzheimer’s disease risk factors apolipoprotein E and TREM2 are linked in a receptor signaling pathway” (Journal of Neuroinflammation, 2017).
